Starred links: 1 amine or outer side, 2 acyl side, 3 side chain; linkers in the order of their positions; H or OH if unused. Non-standard residues stand in square brackets, D forms with d. Groups on a side chain read outwards from the residue. No end group written: not given here. *: point of attachment. C20 diacid = O=C(O)CCCCCCCCCCCCCCCCCCC(=O)*; C18 diacid = O=C(O)CCCCCCCCCCCCCCCCC(=O)*; γGlu = O=C(O)[C@H](CCC(=O)[*:2])N[*:1]; AEEA = NCCOCCOCC(=O)O; Aib = CC(C)(N)C(=O)O
B1: peptide of SEQ ID NO: 173 (peptide)
peptide: IVLSLD[dV]PIKLK([AEEA-AEEA-γGlu-C20 diacid])QILLKQERQK[Aib]QREQAEKNKQILAQV-NH2
modifications: N-terminus assumed
SMILES: CC[C@H](C)[C@H](N)C(=O)N[C@H](C(=O)N[C@@H](CC(C)C)C(=O)N[C@@H](CO)C(=O)N[C@@H](CC(C)C)C(=O)N[C@@H](CC(=O)O)C(=O)N[C@@H](C(=O)N1CCC[C@H]1C(=O)N[C@H](C(=O)N[C@@H](CCCCN)C(=O)N[C@@H](CC(C)C)C(=O)N[C@@H](CCCCNC(=O)COCCOCCNC(=O)COCCOCCNC(=O)CC[C@H](NC(=O)CCCCCCCCCCCCCCCCCCC(=O)O)C(=O)O)C(=O)N[C@@H](CCC(N)=O)C(=O)N[C@H](C(=O)N[C@@H](CC(C)C)C(=O)N[C@@H](CC(C)C)C(=O)N[C@@H](CCCCN)C(=O)N[C@@H](CCC(N)=O)C(=O)N[C@@H](CCC(=O)O)C(=O)N[C@@H](CCCNC(=N)N)C(=O)N[C@@H](CCC(N)=O)C(=O)N[C@@H](CCCCN)C(=O)NC(C)(C)C(=O)N[C@@H](CCC(N)=O)C(=O)N[C@@H](CCCNC(=N)N)C(=O)N[C@@H](CCC(=O)O)C(=O)N[C@@H](CCC(N)=O)C(=O)N[C@@H](C)C(=O)N[C@@H](CCC(=O)O)C(=O)N[C@@H](CCCCN)C(=O)N[C@@H](CC(N)=O)C(=O)N[C@@H](CCCCN)C(=O)N[C@@H](CCC(N)=O)C(=O)N[C@H](C(=O)N[C@@H](CC(C)C)C(=O)N[C@@H](C)C(=O)N[C@@H](CCC(N)=O)C(=O)N[C@H](C(N)=O)C(C)C)[C@@H](C)CC)[C@@H](C)CC)[C@@H](C)CC)C(C)C)C(C)C
B2: peptide of SEQ ID NO: 163 (peptide)
peptide: Ac-IVLSLD[dV]PIHLK([AEEA-AEEA-γGlu-C18 diacid])QILLEQERQK[Aib]QREQAEKNKQILEQV-NH2
B3: peptide of SEQ ID NO: 162 (peptide)
peptide: Ac-IVLSLD[dV]PIELK([AEEA-AEEA-γGlu-C18 diacid])QILLEQERQK[Aib]QREQAEKNKQILEQV-NH2
SMILES: CC[C@H](C)[C@H](NC(C)=O)C(=O)N[C@H](C(=O)N[C@@H](CC(C)C)C(=O)N[C@@H](CO)C(=O)N[C@@H](CC(C)C)C(=O)N[C@@H](CC(=O)O)C(=O)N[C@@H](C(=O)N1CCC[C@H]1C(=O)N[C@H](C(=O)N[C@@H](CCC(=O)O)C(=O)N[C@@H](CC(C)C)C(=O)N[C@@H](CCCCNC(=O)COCCOCCNC(=O)COCCOCCNC(=O)CC[C@H](NC(=O)CCCCCCCCCCCCCCCCC(=O)O)C(=O)O)C(=O)N[C@@H](CCC(N)=O)C(=O)N[C@H](C(=O)N[C@@H](CC(C)C)C(=O)N[C@@H](CC(C)C)C(=O)N[C@@H](CCC(=O)O)C(=O)N[C@@H](CCC(N)=O)C(=O)N[C@@H](CCC(=O)O)C(=O)N[C@@H](CCCNC(=N)N)C(=O)N[C@@H](CCC(N)=O)C(=O)N[C@@H](CCCCN)C(=O)NC(C)(C)C(=O)N[C@@H](CCC(N)=O)C(=O)N[C@@H](CCCNC(=N)N)C(=O)N[C@@H](CCC(=O)O)C(=O)N[C@@H](CCC(N)=O)C(=O)N[C@@H](C)C(=O)N[C@@H](CCC(=O)O)C(=O)N[C@@H](CCCCN)C(=O)N[C@@H](CC(N)=O)C(=O)N[C@@H](CCCCN)C(=O)N[C@@H](CCC(N)=O)C(=O)N[C@H](C(=O)N[C@@H](CC(C)C)C(=O)N[C@@H](CCC(=O)O)C(=O)N[C@@H](CCC(N)=O)C(=O)N[C@H](C(N)=O)C(C)C)[C@@H](C)CC)[C@@H](C)CC)[C@@H](C)CC)C(C)C)C(C)C
B4: peptide of SEQ ID NO: 174 (peptide)
peptide: IVLSLD[dV]PIKLK([AEEA-AEEA-γGlu-γGlu-C18 diacid])QILLKQARQK[Aib]QRAQAEKNKRILERV-NH2
modifications: N-terminus assumed
SMILES: CC[C@H](C)[C@H](N)C(=O)N[C@H](C(=O)N[C@@H](CC(C)C)C(=O)N[C@@H](CO)C(=O)N[C@@H](CC(C)C)C(=O)N[C@@H](CC(=O)O)C(=O)N[C@@H](C(=O)N1CCC[C@H]1C(=O)N[C@H](C(=O)N[C@@H](CCCCN)C(=O)N[C@@H](CC(C)C)C(=O)N[C@@H](CCCCNC(=O)COCCOCCNC(=O)COCCOCCNC(=O)CC[C@H](NC(=O)CC[C@H](NC(=O)CCCCCCCCCCCCCCCCC(=O)O)C(=O)O)C(=O)O)C(=O)N[C@@H](CCC(N)=O)C(=O)N[C@H](C(=O)N[C@@H](CC(C)C)C(=O)N[C@@H](CC(C)C)C(=O)N[C@@H](CCCCN)C(=O)N[C@@H](CCC(N)=O)C(=O)N[C@@H](C)C(=O)N[C@@H](CCCNC(=N)N)C(=O)N[C@@H](CCC(N)=O)C(=O)N[C@@H](CCCCN)C(=O)NC(C)(C)C(=O)N[C@@H](CCC(N)=O)C(=O)N[C@@H](CCCNC(=N)N)C(=O)N[C@@H](C)C(=O)N[C@@H](CCC(N)=O)C(=O)N[C@@H](C)C(=O)N[C@@H](CCC(=O)O)C(=O)N[C@@H](CCCCN)C(=O)N[C@@H](CC(N)=O)C(=O)N[C@@H](CCCCN)C(=O)N[C@@H](CCCNC(=N)N)C(=O)N[C@H](C(=O)N[C@@H](CC(C)C)C(=O)N[C@@H](CCC(=O)O)C(=O)N[C@@H](CCCNC(=N)N)C(=O)N[C@H](C(N)=O)C(C)C)[C@@H](C)CC)[C@@H](C)CC)[C@@H](C)CC)C(C)C)C(C)C
B5: peptide of SEQ ID NO: 182 (peptide)
peptide: IVLSLD[dV]PIKLK(C18 diacid)QILLKQERQK[Aib]QREQAEKNKQILAQV-NH2
modifications: N-terminus assumed
SMILES: CC[C@H](C)[C@H](N)C(=O)N[C@H](C(=O)N[C@@H](CC(C)C)C(=O)N[C@@H](CO)C(=O)N[C@@H](CC(C)C)C(=O)N[C@@H](CC(=O)O)C(=O)N[C@@H](C(=O)N1CCC[C@H]1C(=O)N[C@H](C(=O)N[C@@H](CCCCN)C(=O)N[C@@H](CC(C)C)C(=O)N[C@@H](CCCCNC(=O)CCCCCCCCCCCCCCCCC(=O)O)C(=O)N[C@@H](CCC(N)=O)C(=O)N[C@H](C(=O)N[C@@H](CC(C)C)C(=O)N[C@@H](CC(C)C)C(=O)N[C@@H](CCCCN)C(=O)N[C@@H](CCC(N)=O)C(=O)N[C@@H](CCC(=O)O)C(=O)N[C@@H](CCCNC(=N)N)C(=O)N[C@@H](CCC(N)=O)C(=O)N[C@@H](CCCCN)C(=O)NC(C)(C)C(=O)N[C@@H](CCC(N)=O)C(=O)N[C@@H](CCCNC(=N)N)C(=O)N[C@@H](CCC(=O)O)C(=O)N[C@@H](CCC(N)=O)C(=O)N[C@@H](C)C(=O)N[C@@H](CCC(=O)O)C(=O)N[C@@H](CCCCN)C(=O)N[C@@H](CC(N)=O)C(=O)N[C@@H](CCCCN)C(=O)N[C@@H](CCC(N)=O)C(=O)N[C@H](C(=O)N[C@@H](CC(C)C)C(=O)N[C@@H](C)C(=O)N[C@@H](CCC(N)=O)C(=O)N[C@H](C(N)=O)C(C)C)[C@@H](C)CC)[C@@H](C)CC)[C@@H](C)CC)C(C)C)C(C)C
B6: peptide of SEQ ID NO: 159 (peptide)
peptide: Ac-IVLSLD[dV]PIKLK([AEEA-AEEA-γGlu-C18 diacid])QILLEQERQE[Aib]QREQAEKNKQILEQV-NH2
SMILES: CC[C@H](C)[C@H](NC(C)=O)C(=O)N[C@H](C(=O)N[C@@H](CC(C)C)C(=O)N[C@@H](CO)C(=O)N[C@@H](CC(C)C)C(=O)N[C@@H](CC(=O)O)C(=O)N[C@@H](C(=O)N1CCC[C@H]1C(=O)N[C@H](C(=O)N[C@@H](CCCCN)C(=O)N[C@@H](CC(C)C)C(=O)N[C@@H](CCCCNC(=O)COCCOCCNC(=O)COCCOCCNC(=O)CC[C@H](NC(=O)CCCCCCCCCCCCCCCCC(=O)O)C(=O)O)C(=O)N[C@@H](CCC(N)=O)C(=O)N[C@H](C(=O)N[C@@H](CC(C)C)C(=O)N[C@@H](CC(C)C)C(=O)N[C@@H](CCC(=O)O)C(=O)N[C@@H](CCC(N)=O)C(=O)N[C@@H](CCC(=O)O)C(=O)N[C@@H](CCCNC(=N)N)C(=O)N[C@@H](CCC(N)=O)C(=O)N[C@@H](CCC(=O)O)C(=O)NC(C)(C)C(=O)N[C@@H](CCC(N)=O)C(=O)N[C@@H](CCCNC(=N)N)C(=O)N[C@@H](CCC(=O)O)C(=O)N[C@@H](CCC(N)=O)C(=O)N[C@@H](C)C(=O)N[C@@H](CCC(=O)O)C(=O)N[C@@H](CCCCN)C(=O)N[C@@H](CC(N)=O)C(=O)N[C@@H](CCCCN)C(=O)N[C@@H](CCC(N)=O)C(=O)N[C@H](C(=O)N[C@@H](CC(C)C)C(=O)N[C@@H](CCC(=O)O)C(=O)N[C@@H](CCC(N)=O)C(=O)N[C@H](C(N)=O)C(C)C)[C@@H](C)CC)[C@@H](C)CC)[C@@H](C)CC)C(C)C)C(C)C
B7: peptide of SEQ ID NO: 183 (peptide)
peptide: IVLSLD[dV]PIKLK(C18 diacid)QILLKQARQK[Aib]QRAQAEKNKRILERV-NH2
modifications: N-terminus assumed
SMILES: CC[C@H](C)[C@H](N)C(=O)N[C@H](C(=O)N[C@@H](CC(C)C)C(=O)N[C@@H](CO)C(=O)N[C@@H](CC(C)C)C(=O)N[C@@H](CC(=O)O)C(=O)N[C@@H](C(=O)N1CCC[C@H]1C(=O)N[C@H](C(=O)N[C@@H](CCCCN)C(=O)N[C@@H](CC(C)C)C(=O)N[C@@H](CCCCNC(=O)CCCCCCCCCCCCCCCCC(=O)O)C(=O)N[C@@H](CCC(N)=O)C(=O)N[C@H](C(=O)N[C@@H](CC(C)C)C(=O)N[C@@H](CC(C)C)C(=O)N[C@@H](CCCCN)C(=O)N[C@@H](CCC(N)=O)C(=O)N[C@@H](C)C(=O)N[C@@H](CCCNC(=N)N)C(=O)N[C@@H](CCC(N)=O)C(=O)N[C@@H](CCCCN)C(=O)NC(C)(C)C(=O)N[C@@H](CCC(N)=O)C(=O)N[C@@H](CCCNC(=N)N)C(=O)N[C@@H](C)C(=O)N[C@@H](CCC(N)=O)C(=O)N[C@@H](C)C(=O)N[C@@H](CCC(=O)O)C(=O)N[C@@H](CCCCN)C(=O)N[C@@H](CC(N)=O)C(=O)N[C@@H](CCCCN)C(=O)N[C@@H](CCCNC(=N)N)C(=O)N[C@H](C(=O)N[C@@H](CC(C)C)C(=O)N[C@@H](CCC(=O)O)C(=O)N[C@@H](CCCNC(=N)N)C(=O)N[C@H](C(N)=O)C(C)C)[C@@H](C)CC)[C@@H](C)CC)[C@@H](C)CC)C(C)C)C(C)C

Target: rat CRF2R α receptor (rat, UniProt P47866 20-411)
Sequence (P47866 20-411): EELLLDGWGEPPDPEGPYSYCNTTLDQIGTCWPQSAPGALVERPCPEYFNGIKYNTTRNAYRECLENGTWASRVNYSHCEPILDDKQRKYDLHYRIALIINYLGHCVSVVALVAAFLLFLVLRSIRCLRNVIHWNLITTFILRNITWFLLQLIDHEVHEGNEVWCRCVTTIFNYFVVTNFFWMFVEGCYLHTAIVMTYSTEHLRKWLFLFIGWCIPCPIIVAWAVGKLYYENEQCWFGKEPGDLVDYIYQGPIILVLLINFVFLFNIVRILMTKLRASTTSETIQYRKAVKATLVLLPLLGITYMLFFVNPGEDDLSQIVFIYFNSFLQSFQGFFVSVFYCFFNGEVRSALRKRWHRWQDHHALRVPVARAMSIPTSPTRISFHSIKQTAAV
Assay: cell-based or functional assay

EC50 [nM], 0% HSA (cAMP, A7R5 cells) | Binder
0.83 nM | B1
1.5 nM | B2
48.6 nM | B3
0.42 nM | B4
0.59 nM | B5
15.6 nM | B6
1.12 nM | B7
